From publication PMC8244302, “Shotgun EM of mycobacterial protein complexes during stationary phase stress” (Current Research in Structural Biology, 2020)

Legend:
[1] = target: T1, Msm encapsulin (MSMEG_5830) (M. smegmatis (endogenous in Msm groELΔC), UniProt A0R4H0 1-265); assay: negative stain EM single-particle reconstruction; partially fractionated late stationary phase Msm lysate (anion exchange or sucrose cushion, >100 kDa cut-off), 2% uranyl acetate, Relion 3.1; symmetry imposed from 2D classes; C3 symmetry for encapsulin with cargo; details: partners not purified
T1 construct: encapsulin of Mycobacterium smegmatis, locus MSMEG_5830; Reconstructed with icosahedral symmetry; also called complex 001; encapsulin nanocompartment; source: endogenous, M. smegmatis groELΔC late stationary phase lysate, partially fractionated (anion exchange, >100 kDa cut-off; gel filtration); also solubilised membrane fraction
T1 sequence (looked up): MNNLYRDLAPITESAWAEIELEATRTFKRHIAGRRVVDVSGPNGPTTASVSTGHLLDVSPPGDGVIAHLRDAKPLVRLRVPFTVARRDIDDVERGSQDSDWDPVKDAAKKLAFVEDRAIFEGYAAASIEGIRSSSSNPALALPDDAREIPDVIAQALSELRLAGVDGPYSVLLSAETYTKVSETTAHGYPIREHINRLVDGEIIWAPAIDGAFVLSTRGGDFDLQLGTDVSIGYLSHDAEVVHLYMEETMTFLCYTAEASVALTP

[2] = target: the molecule itself; assay: as above

B1: Msm dye-decolourising type peroxidase (MSMEG_5829) (enzyme, M. smegmatis (endogenous in Msm groELΔC), UniProt A0R4G9 1-343, looked up)
chain: MPAPQPQPVLAPLTPAAVFLVATIDEGQEATVYDALPDISGLVRAIGFRDPAKRLSAITSIGSDAWDRLFSGPRPAELHPFREIDGGRHHAPATPGDLLFHLRAESMDVCFELATKLVEAMSGAITIVDETHGFRFFDNRDLMGFVDGTENPDGNLAVVATQIGDEDPDFAGGCYVHVQKYLHDMASWNSLSVEEQERVIGRTKLDDIELDDDVKPANSHVALNVIEDEDGNELKIIRHNMPFGEIGKGEFGTYYIGYSRTPSVTERMLDNMFIGDPPGNTDRILDFSTAITGGLFFTPTVDFLDDPPPLPSEDDRAEPASAPSADPVHTDGSLGIGSLKGTR
notes: dye-decolourising type peroxidase of Mycobacterium smegmatis, locus MSMEG_5829; Interpreted as a D3 hexamer from the cargo density in the C3 map; also called DyP; DyP type peroxidase; source: endogenous, M. smegmatis groELΔC late stationary phase lysate, partially fractionated, enclosed in encapsulin; also solubilised membrane fraction
- stoichiometry N [1]: 10 encapsulin subunits per DyP subunit
- stoichiometry N [2]: 6 subunits
